Experimental data taken from patent publication CN101448941A.

Legend:
[1] = molecular target: 人血小板生成素受体 (人c-Mpl) (human) (UniProt P40238); test: flow cytometry on FM3A-hMpl cells
[2] = molecular target: 人血小板生成素受体 (人c-Mpl) (human) (UniProt P40238); test: cell-based or functional assay

B1: 7-10G4344uhm轻链突变抗体 7-10VL_Y94F (antibody, part only; not given: heavy chain, not shown: a dimerising Fc or GST)
light: AIQLTQSPSSLSASVGDRVTITCRASQGISSALAWYQQKPGKAPKLLIYDASSLESGVPSRFSGSGSGTDFTLTISSLQPEDFATYYCQQFNSFPLTFGGGTKVEIK
Work on B1 yielded a 结合活性 relative to the original 7-10G4344uhm (of the original level) [1] of 0.1 and a 激动活性 (UT-7/TPO细胞增殖试验), relative to 7-10G4344uhm (of the original level) [2] of 0.1.
